The values below come from patent publication US20250042994A1.

For experiment [1], the target named is human CD19 on the surface of cells (human) (UniProt P15391). Description: FACS on CHO-K1-human CD19-1C4.
For experiment [2] the target is unchanged. The experiment is described as follows: FACS on Raji cells.
For experiment [3] the target is unchanged. The experiment is described as follows: FACS on CHO-K1-human CD19-1C9.
For experiment [4] the target is unchanged. Description: FACS on CHO-K1-human CD19-2C8.
The target is the same in experiment [5]. The experiment is described as follows: FACS on CHO-K1-human CD19-2G4.
Experiment [6] addresses monkey CD19 on cells (monkey). The experiment is described as follows: FACS on HEK293T-monkey CD19.
The target of experiment [7] is human CD19 on CHO-K1-human CD19 cells (human) (UniProt P15391). The experiment is described as follows: FACS on CHO-K1-human CD19 cells.
The target of experiment [8] is human CD19 on Raji cells (human) (UniProt P15391). Description: FACS on Raji cells.
Experiment [9] addresses Human CD19-his protein (human) (UniProt P15391). The experiment is described as follows: ELISA, antibody at 0.001 nM. In general terms: An ELISA detects its analyte on a solid surface through an enzyme-linked reagent.
Experiment [10] has the same target. Description: ELISA, antibody at 1.00 nM.
Experiment [11] deals with cynomolgus monkey CD19 on peripheral blood B cells (cynomolgus monkey (Macaca fascicularis)). Description: FACS, cynomolgus PBMC, CD20+ B cells.
For experiment [12], the target named is monkey CD19 on HEK293T-monkey CD19 cells (monkey). The experiment is described as follows: FACS on HEK293T-monkey CD19 cells.
The target in experiment [13] is Human CD19-his protein (human) (UniProt P15391). The experiment is described as follows: ELISA, antibody at 0.01 nM.
The target is the same in experiment [14]. The experiment is described as follows: ELISA, antibody at 0.10 nM.
The target is the same in experiment [15]. The experiment is described as follows: ELISA, antibody at 100 nM.
The target is the same in experiment [16]. Description: ELISA, antibody at 0.0001 nM.
For experiment [17] the target is unchanged. Description: ELISA, antibody at 10 nM.
Experiment [18] has the same target. Description: ELISA, coated human CD19-His.

human CD19 on the surface of cells (human), sequence (P15391 20-556): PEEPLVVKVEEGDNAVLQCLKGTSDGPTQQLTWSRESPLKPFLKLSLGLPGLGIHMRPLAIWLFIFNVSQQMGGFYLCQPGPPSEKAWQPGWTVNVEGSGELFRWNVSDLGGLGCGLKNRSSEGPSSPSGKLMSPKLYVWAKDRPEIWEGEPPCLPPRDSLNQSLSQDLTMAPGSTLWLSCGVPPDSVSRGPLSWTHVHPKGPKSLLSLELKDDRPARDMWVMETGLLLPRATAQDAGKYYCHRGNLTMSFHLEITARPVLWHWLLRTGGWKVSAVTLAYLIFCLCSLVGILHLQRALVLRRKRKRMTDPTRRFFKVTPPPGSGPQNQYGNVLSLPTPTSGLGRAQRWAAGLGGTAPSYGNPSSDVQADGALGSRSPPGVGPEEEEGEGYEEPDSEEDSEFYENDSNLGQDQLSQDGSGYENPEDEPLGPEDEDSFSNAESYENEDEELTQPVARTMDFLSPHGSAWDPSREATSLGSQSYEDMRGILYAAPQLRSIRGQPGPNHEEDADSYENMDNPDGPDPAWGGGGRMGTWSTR
Human CD19-his protein (human), sequence (P15391 20-291 limits assumed): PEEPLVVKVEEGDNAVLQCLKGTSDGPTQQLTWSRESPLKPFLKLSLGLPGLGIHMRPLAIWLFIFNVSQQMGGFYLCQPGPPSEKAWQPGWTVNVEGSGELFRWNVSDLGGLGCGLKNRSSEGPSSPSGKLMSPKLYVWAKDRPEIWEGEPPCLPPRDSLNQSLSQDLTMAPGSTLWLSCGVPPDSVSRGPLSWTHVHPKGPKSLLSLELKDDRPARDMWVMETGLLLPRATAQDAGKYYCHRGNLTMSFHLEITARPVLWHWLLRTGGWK
human CD19 on CHO-K1-human CD19 cells (human), sequence (P15391 20-556): as the sequence (P15391 20-556) above
human CD19 on Raji cells (human), sequence (P15391 20-556): as above

On to IgG subtype control (antibody), for which the mean fluorescence intensity worked out at 50 in experiment [1]; 72 in experiment [2]; 50 in [3]; 50 in experiment [4]; 50 in experiment [5]; 62 in [6].

Consider anti-hel-hIgG1 (antibody), for which the Maximum mean fluorescence intensity in experiment [7] is 99; in [8], 435; in [12], 90. Moreover, the OD450 in [9] came out at 0.05; in experiment [10] it was 0.05; in experiment [13] it was 0.05; in [14] it was 0.05; in experiment [15] it was 0.08; in experiment [16] it was 0.04. This substance displayed an OD450 in experiment [17] of 0.05. This substance also had a Proportion of chimeric antibody positive cells to B cells (%) at 1 nM in experiment [11] of 1%. This substance returned a Proportion of chimeric antibody positive cells to B cells (%) at 10 nM in [11] of 1%. Also, in experiment [11], the Proportion of chimeric antibody positive cells to B cells (%) at 100 nM was found to be 1%.

For the substance anti-hel-mIgG1 (antibody), the Maximum mean fluorescence intensity in experiment [7] was 82 MFI. Also, in [8], the Maximum mean fluorescence intensity came to 651 MFI. Moreover, in experiment [18], the OD450 at 0.0001 nM was determined as 0.09 OD450, the OD450 at 0.001 nM amounted to 0.08 OD450, the OD450 at 0.01 nM is 0.08 OD450 and the OD450 at 0.10 nM worked out at 0.08 OD450. In [18], this substance registered an OD450 at 1.00 nM of 0.08 OD450 and an OD450 at 100 nM of 0.17 OD450.
